# In IntAct's records for PubMed 17254968:
# B1: Cellular tumor antigen p53 (Mus musculus), P02340 (parent)
# chain: MTAMEESQSDISLELPLSQETFSGLWKLLPPEDILPSPHCMDDLLLPQDVEEFFEGPSEALRVSGAPAAQDPVTETPGPVAPAPATPWPLSSFVPSQKTYQGNYGFHLGFLQSGTAKSVMCTYSPPLNKLFCQLAKTCPVQLWVSATPPAGSRVRAMAIYKKSQHMTEVVRRCPHHERCSDGDGLAPPQHLIRVEGNLYPEYLEDRQTFRHSVVVPYEPPEAGSEYTTIHYKYMCNSSCMGGMNRRPILTIITLEDSSGNLLGRDSFEVRVCACPGRDRRTEEENFRKKEVLCPELPPGSAKRALPTCTSASPPQKKKPLDGEYFTLKIRGRKRFEMFRELNEALELKDAHATEESGDSRAHSSYLKTKKGQSTSRHKKTMVKKVGPDSD
# Variants of: B1
# Conditions: with mapk5_mouse Mapkapk5, O54992
# Chain of mapk5_mouse Mapkapk5, O54992 (O54992 whole entry): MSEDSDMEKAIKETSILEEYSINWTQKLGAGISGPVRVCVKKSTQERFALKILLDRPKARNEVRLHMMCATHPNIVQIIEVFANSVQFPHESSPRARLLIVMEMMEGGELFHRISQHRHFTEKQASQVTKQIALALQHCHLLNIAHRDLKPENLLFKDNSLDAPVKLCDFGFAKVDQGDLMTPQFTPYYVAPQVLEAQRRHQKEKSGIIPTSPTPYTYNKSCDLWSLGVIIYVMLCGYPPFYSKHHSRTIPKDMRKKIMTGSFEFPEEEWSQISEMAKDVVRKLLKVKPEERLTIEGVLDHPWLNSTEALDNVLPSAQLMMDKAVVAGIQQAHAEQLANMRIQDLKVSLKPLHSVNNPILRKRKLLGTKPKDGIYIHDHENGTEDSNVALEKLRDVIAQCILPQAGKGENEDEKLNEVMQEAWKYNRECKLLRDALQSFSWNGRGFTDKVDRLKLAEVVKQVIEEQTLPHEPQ
row,effect of a mutation on the interaction,Variant
1,disrupting interaction,S37D
